In test [1] the target is T1, CD96 on primary human CD4^+ T cells and PBMCs (human (endogenous in primary CD4^+ T cells and PBMCs)) (UniProt P40200).
T1 sequence: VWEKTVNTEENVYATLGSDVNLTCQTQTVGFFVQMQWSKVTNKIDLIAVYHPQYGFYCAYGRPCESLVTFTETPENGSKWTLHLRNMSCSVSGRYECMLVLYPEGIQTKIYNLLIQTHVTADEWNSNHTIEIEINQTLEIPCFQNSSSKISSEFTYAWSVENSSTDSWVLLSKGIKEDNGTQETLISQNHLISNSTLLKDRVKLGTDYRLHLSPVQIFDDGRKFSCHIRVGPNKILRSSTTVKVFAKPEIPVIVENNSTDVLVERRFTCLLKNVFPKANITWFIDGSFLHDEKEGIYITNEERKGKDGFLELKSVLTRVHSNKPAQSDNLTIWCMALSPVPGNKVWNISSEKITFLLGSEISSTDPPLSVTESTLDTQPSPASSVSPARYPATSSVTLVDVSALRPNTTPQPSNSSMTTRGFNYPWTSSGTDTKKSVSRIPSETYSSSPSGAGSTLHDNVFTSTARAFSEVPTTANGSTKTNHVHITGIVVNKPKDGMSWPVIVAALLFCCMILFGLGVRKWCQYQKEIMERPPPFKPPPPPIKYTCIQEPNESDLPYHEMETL

For test [2], the target named is T1, CD96 on primary human CD4^+ T cells and PBMCs (human (endogenous in primary CD4^+ T cells and PBMCs)). This is another data set of the same source.

B1: Recombinant human CD155-Fc chimera (carrier-free) (Fc fusion)
chain: WPPPGTGDVVVQAPTQVPGFLGDSVTLPCYLQVPNMEVTHVSQLTWARHGESGSMAVFHQTQGPSYSESKRLEFVAARLGAELRNASLRMFGLRVEDEGNYTCLFVTFPQGSRSVDIWLRVLAKPQNTAEVQKVQLTGEPVPMARCVSTGGRPPAQITWHSDLGGMPNTSQVPGFLSGTVTVTSLWILVPSSQVDGKNVTCKVEHESFEKPQLLTVNLTVYYPPEVSISGYDNNWYLGQNEATLTCDARSNPEPTGYNWSTTMGPLPPFAVAQGAQLLIRPVDKPINTTLICNVTNALGARQAELTVQVKEGPPSEHSGISRN
In the case of B1, the adherence of primary CD4^+ T cells (mock-infected or infected with WT HIV-1) to wells coated with CD155-Fc, percent adherent cells by flow cytometry in test [1] is 20%.

B2: Human CD155 (PVR) Fc chimera recombinant protein (Fc fusion)
chain: WPPPGTGDVVVQAPTQVPGFLGDSVTLPCYLQVPNMEVTHVSQLTWARHGESGSMAVFHQTQGPSYSESKRLEFVAARLGAELRNASLRMFGLRVEDEGNYTCLFVTFPQGSRSVDIWLRVLAKPQNTAEVQKVQLTGEPVPMARCVSTGGRPPAQITWHSDLGGMPNTSQVPGFLSGTVTVTSLWILVPSSQVDGKNVTCKVEHESFEKPQLLTVNLTVYYPPEVSISGYDNNWYLGQNEATLTCDARSNPEPTGYNWSTTMGPLPPFAVAQGAQLLIRPVDKPINTTLICNVTNALGARQAELTVQVKEGPPSEHSGISRN
In test [2], B2 registered an IFN-γ release (ELISpot) of PBMCs stimulated with HCMV pp65 peptide and costimulated with soluble CD155 (5 μg/ml), fold change relative to pp65 alone of under 8 fold.

(Values after paper PMC12412668.)
